According to article PMC4794909, “The transcription factor scleraxis is a critical regulator of cardiac fibroblast phenotype”:

B1: E box 2 (E2), αSMA promoter (dsDNA)
DNA 1: GTTTATCCCCATAAGCAGCTGAACTGCCTCCTGTTT
DNA 2: AAACAGGAGGCAGTTCAGCTGCTTATGGGGATAAAC
B2: E box 2 mutant (mE2) (dsDNA)
DNA 1: GTTTATCCCCATAAGCTGGTGAACTGCCTCCTGTTT
DNA 2: AAACAGGAGGCAGTTCACCAGCTTATGGGGATAAAC
B3: E box 1 (E1), αSMA promoter (dsDNA)
DNA 1: GTCTGGGCATTTGAGCAGTTGTTCTGAGGGCTCAGG
DNA 2: CCTGAGCCCTCAGAACAACTGCTCAAATGCCCAGAC
B4: E box 1 mutant (mE1) (dsDNA)
DNA 1: GTCTGGGCATTTGAGCCGATGTTCTGAGGGCTCAGG
DNA 2: CCTGAGCCCTCAGAACATCGGCTCAAATGCCCAGAC

Target: T1, scleraxis (Scx) (UniProt Q6P6L3 1-207)
T1 sequence: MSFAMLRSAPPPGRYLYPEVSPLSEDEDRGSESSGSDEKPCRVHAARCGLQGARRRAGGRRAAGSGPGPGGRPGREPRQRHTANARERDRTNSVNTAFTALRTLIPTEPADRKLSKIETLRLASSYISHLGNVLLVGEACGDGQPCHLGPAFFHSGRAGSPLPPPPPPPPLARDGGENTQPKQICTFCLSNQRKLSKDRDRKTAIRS
Experiment: EMSA; LightShift Chemiluminescent EMSA Kit (Pierce) per manufacturer, as in ref. 18; 500x cold competition; buffer, salt, pH and temperature not given
Details: chain copies: 2; label: biotin; blunt

Binder | binding result
B1 | binds
B2 | no binding
B3 | binds
B4 | no binding
